In paper PMC2953525, “Subtle Alterations in PCNA-Partner Interactions Severely Impair DNA Replication and Repair” (PLoS Biology, 2010):
Positions count from the first letter of the chain named.

Key:
yeast strains = assay: Growth sensitivity of PCNA mutant strains to MMS and HU; assay type: cell-based; conditions: for effect of rad30 deletion on strain growth sensitivity phenotype: Figure 6B; for effect of rad27 deletion on growth sensitivity of the mutant strain: Figure S8, parent vs rad27-deleted strains; for effect of overexpression of Rad27, Rad30, Pol32, and Msh6 on growth sensitivity to DNA damaging agents: Figure S9, GAL1/10 inducible GST-tagged partners
From the text: Next, we examined the sensitivity of strains containing single deletions of each of the five different partners on a WT PCNA background. […] We first examined whether the rad27 deletion can suppress the lethality of a strain containing the pol30-Rad27L1 or pol30-Rad27L2 mutants (Figure 6A). […] In addition, we examined whether rad30 deletion, ung1 deletion, and msh6 deletion can suppress the phenotypes of the pol30 mutants with increased affinity to Rad30, Ung1, and Msh6, respectively (Figure 6B–D). […] However, since the suppression of the strain phenotypes was not complete, additional factors, such as minor effects of the mutations on other PCNA-partner interactions, may play a partial role in the sensitivity phenotype of the examined pol30 mutants. […] We also examined whether overexpression of different partners can suppress the growth sensitivity of the pol30 mutants, however no suppression was observed (Figure S9).
(§1) Novel haploids containing PCNA mutants were generated using the plasmid shuffling method. Briefly, a pol30::KanMX magic marker heterozygote diploid strain BY4743 (Open Biosystem) was transformed with plasmid pRS316-POL30. Following dissection of the diploid, a haploid containing the CAN+ gene and plasmid pRS316-POL30 as a sole source of PCNA was generated. This host strain was transformed with selected pRS315-pol30 mutants, plated on SC-Ura-Leu plates, followed by replica plating to SC-Leu+5FOA plates. Haploids, containing PCNA mutants as a sole source, were further verified by plating on either SC-Leu or SC-Ura plates. For testing selected PCNA mutants, a haploid containing rad27::HYG, rad30::HYG, pol32::HYG, msh6::HYG, or ung1::HYG were generated using plasmid pAG32 by conventional genetic approaches. Growth of the PCNA mutant strains in the presence of 120 mM HU (Toronto Research Chemicals) or 0.02% MMS (Sigma) was performed as described. To examine the effects of partner overexpression on pol30 mutant strains, these strains were transformed with various plasmids containing GST-tagged PCNA partner encoding genes under the control of a GAL1/10 inducible promoter, as previously described. Overnight cultures were plated in serial dilutions on SC-Ura containing either glucose or galactose with or without DNA-damaging agents, as described above.

CAN1 gene = assay: Spontaneous mutation rate, CAN1 reporter assay, fluctuation analysis; assay type: cell-based, yeast; conditions: for Spontaneous Mutation Rate Can^R (Fold Increase): Table 1, compared to the WT POL30 strain
From the text: It was previously shown that PCNA contains another site of regulation (i.e. K164) that is modulated by ubiquitination or SUMOylation (Figure 1B) and that is crucial for the recruitment of TLS polymerases,[37]. To test whether the K164 regulatory site is active in the PCNA mutant strains, we examined the spontaneous mutation rate in these strains (Table 1). Increase in spontaneous mutation rate can indicate the recruitment of TLS polymerases to PCNA through K164 ubiquitination,[37]. Alternatively, these mutants can indirectly affect the spontaneous mutation rate by reducing DNA replication processivity and causing replication fork stalling, thereby leading to TLS recruitment. These mutants can also indirectly alter Pol-δ or Pol-ε proofreading leading to TLS recruitment. We measured the spontaneous mutation rate using the CAN1 reporter assay by monitoring the ability of the PCNA mutant strains to grow in the presence of canavanine, a toxic analogue of arginine. […] To examine whether Polζ, the major TLS polymerase,[37], is recruited in vivo to PCNA mutants showing increased affinity for Rad27 and Pol32 (pol30-Rad27E6 and pol30-Pol32E5, Table 1) upon K164 ubiquitination, we measured the spontaneous mutation rates of these mutant strains on the background of either mutated rev3 encoding the catalytic subunit of Polζ or mutated rad18 encoding the K164 ubiquitin ligase or K164R mutation (Figure 7, Table 2).
as §1
The mutation rates for the different pol30 mutant strains described in this study were determined by fluctuation test analysis using the Lea and Coulson method,[48]. The different strains were plated as single colonies on SC-Leu plates and allowed to grow for 3 d at 30°C. At least 25 single colonies from each strain were excised from the plate and resuspended in 1 ml of sterile water to an O.D600 of 0.7. Appropriate dilutions of the cells were then plated on SC-Leu and SC-Leu-Arg+canavanine ([…]) to obtain the number of viable cells (Nt) and the number of canavanine-resistant cells (r), respectively. Using the Lea and Coulson method, the number of mutations (m) per colony was derived from the number of canavanine resistant-colonies (r) across parallel cultures, using the following equation: […]. The m values were then used to calculate the mutation rate, M, using the following equation: M = m/Nt, where Nt is the average number of viable cells per plating. The different M values were sorted to obtain the median. […]

Msh6 = assay: Yeast two hybrid (Y2H) analysis of PCNA-partner interaction; assay type: binding; conditions: YRG2 strain, growth on selective agar plates lacking histidine; growth similar to WT PCNA denoted as 1
Outline: (§2)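 PCNA WT or mutants as bait against each partner as prey, cotransformed into yeast YRG2; interaction scored as growth on SC-Leu-Trp-His from 10-fold serial dilutions, 30°C, 3 d. Quantitative: generation time τ from OD600 growth curves in liquid SC-Leu-Trp-His, mean of ≥3 experiments.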

Rad30 = assay: as above; assay type: binding; conditions: for Binding of PCNA Mutants to Target Partners: Rad30, fold increase or decrease (quantitative Y2H): footnote c: generation time in liquid selective media lacking histidine relative to cells expressing WT PCNA, average of at least 3 independent experiments; for Binding of PCNA Mutants to Target Partners: Rad30 (Y2H): YRG2 strain, growth on selective agar plates lacking histidine, growth similar to WT PCNA denoted as 1
Outline: as §2

Pol32 = assay: as above; assay type: binding; conditions: for Binding of PCNA Mutants to Target Partners: Pol32, fold increase or decrease (quantitative Y2H): footnote c: generation time in liquid selective media lacking histidine relative to cells expressing WT PCNA, average of at least 3 independent experiments; for Binding of PCNA Mutants to Target Partners: Pol32 (Y2H): YRG2 strain, growth on selective agar plates lacking histidine, growth similar to WT PCNA denoted as 1
Outline: as §2

Ung1 = assay: as above; assay type: binding; conditions: YRG2 strain, growth on selective agar plates lacking histidine; growth similar to WT PCNA denoted as 1
Outline: as §2

Rad27 = assay: as above; assay type: binding; conditions: for Binding of PCNA Mutants to Target Partners: Rad27, fold increase or decrease (quantitative Y2H): footnote c: generation time in liquid selective media lacking histidine relative to cells expressing WT PCNA, average of at least 3 independent experiments
Outline: as §2

B1: pol30-Rad30E2: PCNA mutant evolved for Rad30, IDCL sequence DDDWDFLKILEL (protein)
chain: MLEAKFEEASLFKRIIDGFKDCVQLVNFQCKEDGIIAQAVDDSRVLLVSLEIGVEAFQEYRCDHPVTLGMDLTSLSKILRCGNNTDTLTLIADNTPDSIILLFEDTKKDRIAEYSLKLMDDDWDFLKILELQYDSTLSLPSSEFSKIVRDLSQLSDSINIMITKETIKFVADGDIGSGSVIIKPFVDMEHPETSIKLEMDQPVDLTFGAKYLLDIIKGSSLSDRVGIRLSSEAPALFQFDLKSGFLQFFLAPKFNDEE
modifications: left off: Gal4 activation domain, end not stated, kept
Yeast strains
  effect of rad30 deletion on strain growth sensitivity phenotype: suppression
  effect of rad27 deletion on growth sensitivity of the mutant strain: suppression of the growth sensitivity
CAN1 gene
  Spontaneous Mutation Rate Can^R (Fold Increase): 10 fold
Msh6
  Binding of PCNA Mutants to Target Partners: Msh6 (Y2H): 1
Rad30
  Binding of PCNA Mutants to Target Partners: Rad30, fold increase or decrease (quantitative Y2H): 1.4 ^c fold
Pol32
  Binding of PCNA Mutants to Target Partners: Pol32, fold increase or decrease (quantitative Y2H): 0.4 ^c fold
Ung1
  Binding of PCNA Mutants to Target Partners: Ung1 (Y2H): 1
Rad27
  Binding of PCNA Mutants to Target Partners: Rad27, fold increase or decrease (quantitative Y2H): 0.4 ^c fold

B2: pol30-Pol32E5: PCNA mutant evolved for Pol32, IDCL sequence DADNDFLKISEL (protein)
chain: B1 chain with D121A, W123N, L129S
modifications: left off: Gal4 activation domain, end not stated, kept
Yeast strains
  effect of overexpression of Rad27, Rad30, Pol32, and Msh6 on growth sensitivity to DNA damaging agents: did not reduce the growth sensitivity
CAN1 gene
  Spontaneous Mutation Rate Can^R (Fold Increase): 13.3 fold
CAN1 gene; Table 2
  Fold Increase Relative to WT (mutation rate, CAN1 locus): 13 fold
Msh6
  Binding of PCNA Mutants to Target Partners: Msh6 (Y2H): 1
Rad30
  Binding of PCNA Mutants to Target Partners: Rad30 (Y2H): 1
Pol32
  Binding of PCNA Mutants to Target Partners: Pol32, fold increase or decrease (quantitative Y2H): 1.5 ^c fold
Ung1
  Binding of PCNA Mutants to Target Partners: Ung1 (Y2H): 1
Rad27; YRG2 strain, growth on selective agar plates lacking histidine, growth similar to WT PCNA denoted as 1
  Binding of PCNA Mutants to Target Partners: Rad27 (Y2H): 1

B3: pol30-Rad30E9: PCNA mutant evolved for Rad30, IDCL sequence DNDWDFLKIDEL (protein)
chain: B1 chain with D121N, L129D
modifications: left off: Gal4 activation domain, end not stated, kept
Yeast strains
  effect of rad30 deletion on strain growth sensitivity phenotype: suppression
CAN1 gene
  Spontaneous Mutation Rate Can^R (Fold Increase): 15.3 fold
Msh6
  Binding of PCNA Mutants to Target Partners: Msh6 (Y2H): 1
Rad30
  Binding of PCNA Mutants to Target Partners: Rad30, fold increase or decrease (quantitative Y2H): 1.6 fold
Pol32
  Binding of PCNA Mutants to Target Partners: Pol32 (Y2H): 1
Ung1
  Binding of PCNA Mutants to Target Partners: Ung1 (Y2H): 1
Rad27
  Binding of PCNA Mutants to Target Partners: Rad27, fold increase or decrease (quantitative Y2H): 0.5 ^c fold

B4: pol30-Rad27E6: PCNA mutant evolved for Rad27, IDCL sequence DGDYDILKIREL (protein)
chain: B1 chain with D121G, W123Y, F125I, L129R
modifications: left off: Gal4 activation domain, end not stated, kept
Yeast strains
  effect of rad27 deletion on growth sensitivity of the mutant strain: only weak effect
  effect of overexpression of Rad27, Rad30, Pol32, and Msh6 on growth sensitivity to DNA damaging agents: did not reduce the growth sensitivity
CAN1 gene
  Spontaneous Mutation Rate Can^R (Fold Increase): 8 fold
CAN1 gene; Table 2, median, brackets = 95% confidence interval, at least 25 independent determinations
  Mutation Rate (CAN1 locus): 1.2×10^−6 [8.0, 13.9]
Msh6
  Binding of PCNA Mutants to Target Partners: Msh6 (Y2H): 1
Rad30
  Binding of PCNA Mutants to Target Partners: Rad30 (Y2H): 1
Pol32
  Binding of PCNA Mutants to Target Partners: Pol32 (Y2H): 1
Ung1
  Binding of PCNA Mutants to Target Partners: Ung1 (Y2H): 1
Rad27
  Binding of PCNA Mutants to Target Partners: Rad27, fold increase or decrease (quantitative Y2H): 1.5 ^c fold
